Usually EC50 (read off the curve) stands for the concentration giving half of the maximal effect. Low readings indicate a more potent agent, high ones a less potent agent.

The record followed here is patent US20240218065A1 (SHENGHE CHINA BIOPHARMACEUTICAL, published 2024).

T1: huCD24-humanFC (Acro, cat: CD4-H5254) (human, UniProt P25063 27-59)
T1 construct: also called CD24 protein; not shown: human Fc
T1 chain (looked up): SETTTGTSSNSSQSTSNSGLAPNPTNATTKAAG

T2: Human-NKP30-His (Kactus, cat: NKP-HM430) (human, UniProt O14931 19-138, limits assumed)
T2 construct: also called NKP30 protein; NKP30-his protein; not shown: His tag
T2 sequence (looked up): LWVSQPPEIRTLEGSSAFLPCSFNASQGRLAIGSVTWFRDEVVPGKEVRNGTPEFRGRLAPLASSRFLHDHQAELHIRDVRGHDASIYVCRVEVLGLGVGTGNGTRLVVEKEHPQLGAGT

B1: DN15-B (bispecific antibody, human IgG1, kappa)
light: DIQMTQSPSTLSASVGDRVTITCSASSSVSSMHWYQQKPGKAPKLLIYSTSNLASGVPSRFSGSGSGTEYTLTISSLQPDDFATYYCHHWTSYMYTFGGGTKVEIKRTVAAPSVFIFPPSDEQLKSGTASVVCLLNNFYPREAKVQWKVDNALQSGNSQESVTEQDSKDSTYSLSSTLTLSKADYEKHKVYACEVTHQGLSSPVTKSFNRGEC
heavy 1: not shown
heavy 2: EVQLVESGGGLVQPGGSLRLSCAASGITFSRSVMGWFRQAPGKLRELVAGITSDDNTDYADSVKGRFTISRDNSKNTLYLQMNSLRAEDTAVYYCNILPDSRLGWGQGTLVTVSSGGGGSGGGGSGGGGSQVQLVQSGSELKKPGASVKVSCKASGYIFTDYAIHWVRQAPGQGLEWMGFINTATGEPTYADDFKGRFVFSLDTSVSTAYLQISSLKAEDTAVYFCTSGVHWGQGTLVTVSSASTKGPSVFPLAPSSKSTSGGTAALGCLVKDYFPEPVTVSWNSGALTSGVHTFPAVLQSSGLYSLSSVVTVPSSSLGTQTYICNVNHKPSNTKVDKKVEPKSCDKTHTCPPCPGGGGSGGGGSPALLLLLLLRPPATRGITCPPPMSVEHADIWVKSYSLYSRERYICNSGFKRKAGTSSLTECVLNKATNVAHWTTPSLKCIRDPALVHQRPAPPSTVTTAGVTPQPESLSPSGKEGGGGSGGGGSAPELLGGPSVFLFPPKPKDTLMISRTPEVTCVVVDVSHEDPEVKFNWYVDGVEVHNAKTKPREEQYNSTYRVVSVLTVLHQDWLNGKEYKCKVSNKALPAPIEKTISKAKGQPREPQVYTLPPSRDELTKNQVSLTCLVKGFYPSDIAVEWESNGQPENNYKTTPPVLDSDGSFFLASKLTVDKSRWQQGNVFSCSVMHEALHNHYTQKSLSLSPGK
notes: Trifunctional antibody against CD24 and NKP30 with IL-15 and IL-15Rα sushi between CH1 and CH2; also called constructed antibody DN15-B; multifunctional antibody
B2: DN15-D (bispecific antibody, human IgG1, kappa)
light: B1 light
heavy 1: not shown
heavy 2: QVQLVQSGSELKKPGASVKVSCKASGYIFTDYAIHWVRQAPGQGLEWMGFINTATGEPTYADDFKGRFVFSLDTSVSTAYLQISSLKAEDTAVYFCTSGVHWGQGTLVTVSSASTKGPSVFPLAPSSKSTSGGTAALGCLVKDYFPEPVTVSWNSGALTSGVHTFPAVLQSSGLYSLSSVVTVPSSSLGTQTYICNVNHKPSNTKVDKKVEPKSCDKTHTCPPCPGGGGSGGGGSPALLLLLLLRPPATRGITCPPPMSVEHADIWVKSYSLYSRERYICNSGFKRKAGTSSLTECVLNKATNVAHWTTPSLKCIRDPALVHQRPAPPSTVTTAGVTPQPESLSPSGKEGGGGSGGGGSAPELLGGPSVFLFPPKPKDTLMISRTPEVTCVVVDVSHEDPEVKFNWYVDGVEVHNAKTKPREEQYNSTYRVVSVLTVLHQDWLNGKEYKCKVSNKALPAPIEKTISKAKGQPREPQVYTLPPSRDELTKNQVSLTCLVKGFYPSDIAVEWESNGQPENNYKTTPPVLDSDGSFFLASKLTVDKSRWQQGNVFSCSVMHEALHNHYTQKSLSLSPGKGGGGSGGGGSGGGGSGGGGSEVQLVESGGGLVQPGGSLRLSCAASGITFSRSVMGWFRQAPGKLRELVAGITSDDNTDYADSVKGRFTISRDNSKNTLYLQMNSLRAEDTAVYYCNILPDSRLGWGQGTLVTVSS
notes: Trifunctional antibody against CD24 and NKP30 with IL-15 and IL-15Rα sushi between CH1 and CH2; also called constructed antibody DN15-D; multifunctional antibody
B3: DN15-A (bispecific antibody, human IgG1, kappa)
light: EVQLVESGGGLVQPGGSLRLSCAASGITFSRSVMGWFRQAPGKLRELVAGITSDDNTDYADSVKGRFTISRDNSKNTLYLQMNSLRAEDTAVYYCNILPDSRLGWGQGTLVTVSSGGGGSGGGGSGGGGSDIQMTQSPSTLSASVGDRVTITCSASSSVSSMHWYQQKPGKAPKLLIYSTSNLASGVPSRFSGSGSGTEYTLTISSLQPDDFATYYCHHWTSYMYTFGGGTKVEIKRTVAAPSVFIFPPSDEQLKSGTASVVCLLNNFYPREAKVQWKVDNALQSGNSQESVTEQDSKDSTYSLSSTLTLSKADYEKHKVYACEVTHQGLSSPVTKSFNRGEC
heavy 1: not shown
heavy 2: QVQLVQSGSELKKPGASVKVSCKASGYIFTDYAIHWVRQAPGQGLEWMGFINTATGEPTYADDFKGRFVFSLDTSVSTAYLQISSLKAEDTAVYFCTSGVHWGQGTLVTVSSASTKGPSVFPLAPSSKSTSGGTAALGCLVKDYFPEPVTVSWNSGALTSGVHTFPAVLQSSGLYSLSSVVTVPSSSLGTQTYICNVNHKPSNTKVDKKVEPKSCDKTHTCPPCPGGGGSGGGGSPALLLLLLLRPPATRGITCPPPMSVEHADIWVKSYSLYSRERYICNSGFKRKAGTSSLTECVLNKATNVAHWTTPSLKCIRDPALVHQRPAPPSTVTTAGVTPQPESLSPSGKEGGGGSGGGGSAPELLGGPSVFLFPPKPKDTLMISRTPEVTCVVVDVSHEDPEVKFNWYVDGVEVHNAKTKPREEQYNSTYRVVSVLTVLHQDWLNGKEYKCKVSNKALPAPIEKTISKAKGQPREPQVYTLPPSRDELTKNQVSLTCLVKGFYPSDIAVEWESNGQPENNYKTTPPVLDSDGSFFLASKLTVDKSRWQQGNVFSCSVMHEALHNHYTQKSLSLSPGK
notes: Trifunctional antibody against CD24 and NKP30 with IL-15 and IL-15Rα sushi between CH1 and CH2; also called constructed antibody DN15-A; multifunctional antibody

The target of one assay is T1, huCD24-humanFC (Acro, cat: CD4-H5254). Nature of the assay: Bridging ELISA: huCD24-humanFC coated at 0.3 µg/mL, antibody titrated 3-fold from 20 µg/mL, then NKP30-his at 0.3 µg/mL, HRP anti-His antibody, OD450-OD570. On the procedure: The huCD24-humanFC (Acro, cat: CD4-H5254) was diluted to 0.3 μg/mL with PBS buffer at pH 7.4, added into the 96-well ELISA plate at 100 μL per well, coated overnight at 4° C., and blocked with 1% BSA blocking solution for 1 hour. The plate was washed 3 times with PBST, and the purified antibody was diluted to 20 μg/mL with 0.5% BSA sample diluent as the starting concentration, and then diluted by 3-fold gradient (11 gradients in total). An irrelevant antibody was set as the negative control and incubated at 37° C. for 1 h at 50 μL per well. The plate was washed 3 times with PBST, and the NKP30-his protein was diluted to 0.3 μg/mL. 100 μL was added into each well, and incubated at room temperature for 1 h. The plate was washed 3 times with PBST, and then HRP-labelled his antibody was diluted with the sample diluent at 1:5000. 100 μL was added into each well, and incubated at room temperature for 1 h. The plate was washed 4 times with PBST, 100 μL of TMB substrate was added into each well, and incubated at room temperature without light for 10 min. 100 μL of 1 M HCl solution was added into each well to terminate the color development reaction. The absorbance value of each well in the 96-well plate was determined by selecting the wavelength of 450 nm and the reference wavelength of 570 nm on a multifunctional enzyme marker, and the absorbance value (OD)=OD₄₅₀ₙₘ−OD₅₇₀ₙₘ. The logarithm of antibody concentration was taken as the abscissa, and the measured absorbance value of each well was taken as the ordinate, and the Sigmoidaldose-response (Variable Slope) method (GraphPad Prism software, GraphPad Software, San Diego, California) was selected for nonlinear regression to obtain the binding curve of the target antibody to CD24 and NKP30 proteins at both ends.
For the molecule B1, the 50% effective concentration (EC50 (read off the curve)) was approximately 0.1 µg/mL.

On to B2, for which the concentration for a half-maximal effect (EC50 (read off the curve)) was approximately 0.2 µg/mL.

For the molecule B3, the concentration giving a half-maximal response (EC50 (read off the curve)) was approximately 0.08 µg/mL.

In another assay the target is T2, Human-NKP30-His (Kactus, cat: NKP-HM430). Nature of the assay: ELISA: Human-NKP30-His coated at 0.2 µg/mL, antibody titrated 3-fold from 10 µg/mL (7 points), HRP goat anti-human IgG-Fc, OD450-OD570. On the procedure: Human-NKP30-His (Kactus, cat: NKP-HM430) was diluted to 0.2 μg/mL with PBS buffer at pH 7.4, added into the 96-well ELISA plate at 100 μL per well, coated overnight at 4° C., and blocked with 1% BSA blocking solution for 1 hour. The plate was washed 3 times with PBST, and the constructed expressing antibody was diluted to 10 μg/mL with 0.5% BSA sample diluent as the starting concentration, and then diluted by 3-fold gradient (7 gradients in total). A negative control (blank well and IgG1 isotype control) and a positive control were set, and the positive control was the NKP30 humanized antibody (sequence shown in SEQ ID No. 28), and incubated at 37° C. for 1 h at 100 μL per well. The plate was washed 3 times with PBST, and then HRP-labelled goat anti-human IgG-Fc was diluted with the sample diluent at 1:20000. 100 μL was added into each well, and incubated at room temperature for 1 hour. The plate was washed 4 times with PBST, and 100 μL of TMB substrate was added into each well, and incubated at room temperature without light for 10 minutes. 100 μL of 1 M HCl solution was added into each well to terminate the color development reaction. The absorbance value of each well in the 96-well plate was determined by selecting the wavelength of 450 nm and the reference wavelength of 570 nm on a multifunctional enzyme marker, and the absorbance value (OD)=OD₄₅₀ₙₘ−OD₅₇₀ₙₘ. The logarithm of the concentration of the constructed antibody was taken as the abscissa, and the measured absorbance value of each well was taken as the ordinate, and the Sigmoidaldose-response (Variable Slope) method (GraphPad Prism software, GraphPad Software, San Diego, California) was selected for nonlinear regression to obtain the binding curve of the target antibody to NKP30.
On to B1, for which the binding result is recorded as “binds”.

As for B2, the binding result is recorded as “binds”.

Turning to B3, the binding result is reported as “binds”.
